Measurements reported in patent US20250115663A1 (CELLDEX THERAPEUTICS, published 2025).
Positions count from the first letter of the chain named.

Experiments:
[1] = biological target: T1, kappa-sCD40(1-94)-Flag point mutant E36K (human, UniProt P25942 21-114); assay: ELISA, kappa-sCD40-Flag fusion (~2 ug/ml) captured on anti-Flag, anti-human IgG Fc-HRP
T1 construct: not shown: N-terminal human kappa light chain; C-terminal Flag tag
T1 chain: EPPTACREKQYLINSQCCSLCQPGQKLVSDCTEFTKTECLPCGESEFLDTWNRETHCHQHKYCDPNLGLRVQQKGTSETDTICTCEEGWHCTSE
Protocol: (§1) containing the sCD40 fusion proteins were captured to microtiter plates that were pre-coated with 5 μg/ml mouse anti-Flag antibody (Sigma) in PBS and blocked with 5% bovine serum albumin in PBS. Following incubation with the CD40 antibody, the microplates were washed with PBS/Tween, and incubated with a goat anti-human IgG Fc polyclonal reagent conjugated to horseradish peroxidase. After washing, the plates were developed with HRP substrate, and analyzed at OD 450-650 using a microtiter plate reader. An ELISA with a goat anti-human IgG Fab2-HRP to measure kappa chain binding was carried out in parallel to validate the sCD40 fusion protein expression from different transfections.

[2] = biological target: T2, kappa-sCD40(1-94)-Flag point mutant F34L (human, UniProt P25942 21-114); assay: as above
T2 construct: not shown: N-terminal human kappa light chain; C-terminal Flag tag
T2 chain: T1 chain with F34L, K36E
Protocol: as §1

[3] = biological target: T3, kappa-sCD40(1-94)-Flag mutant fragment D (multiple mutations of residues 33-36) (human, UniProt P25942 21-114); assay: as above
T3 construct: The text says only multiple mutations of residues 33-36 (human to mouse differences); that mutant D carries exactly these is inferred; also called D (33-36); not shown: N-terminal human kappa light chain; C-terminal Flag tag
T3 chain: T1 chain with E33A, F34L, T35E
Protocol: as §1

[4] = biological target: T4, kappa-sCD40(1-94)-Flag point mutant P2Q (human, UniProt P25942 21-114); assay: as above
T4 construct: not shown: N-terminal human kappa light chain; C-terminal Flag tag
T4 chain: T1 chain with P2Q, K36E
Protocol: as §1

[5] = biological target: T5, kappa-sCD40(1-94)-Flag point mutant E1G (human, UniProt P25942 22-114); assay: as above
T5 construct: not shown: N-terminal human kappa light chain; C-terminal Flag tag
Protocol: as §1

[6] = biological target: T6, kappa-sCD40(1-94)-Flag point mutant E33A (human, UniProt P25942 21-114); assay: as above
T6 construct: not shown: N-terminal human kappa light chain; C-terminal Flag tag
T6 chain: T1 chain with E33A, K36E
Protocol: as §1

[7] = biological target: T7, kappa-sCD40(1-94)-Flag point mutant T35E (human, UniProt P25942 21-114); assay: as above
T7 construct: not shown: N-terminal human kappa light chain; C-terminal Flag tag
T7 chain: T1 chain with T35E, K36E
Protocol: as §1

[8] = biological target: T8, kappa-sCD40(1-94)-Flag point mutant T4V (human, UniProt P25942 21-114); assay: as above
T8 construct: not shown: N-terminal human kappa light chain; C-terminal Flag tag
T8 chain: T1 chain with T4V, K36E
Protocol: as §1

[9] = biological target: T9, kappa-sCD40(1-94)-Flag mutant fragment A (multiple mutations of residues 1-5) (human, UniProt P25942 26-114); assay: as above
T9 construct: The text says only multiple mutations of residues 1-5 (human to mouse differences); that mutant A carries exactly these is inferred; also called A (1-5); not shown: N-terminal human kappa light chain; C-terminal Flag tag
Protocol: as §1

[10] = biological target: T10, kappa-sCD40(1-94)-Flag point mutant P3S (human, UniProt P25942 21-114); assay: as above
T10 construct: not shown: N-terminal human kappa light chain; C-terminal Flag tag
T10 chain: T1 chain with P3S, K36E
Protocol: as §1

[11] = biological target: T11, kappa-sCD40-Flag fusion protein, fragment amino acids 1-94 (human, UniProt P25942 21-114); assay: as above
T11 construct: also called sCD40aa 1-94; not shown: N-terminal human kappa light chain; C-terminal Flag tag
Protocol: as §1

[12] = biological target: T2, kappa-sCD40(1-94)-Flag point mutant F34L; assay: ELISA, mutated kappa-sCD40(1-94)-Flag captured on anti-Flag antibody, detection anti-human IgG Fc-HRP; the concentration axis is taken as that of 3C3
Protocol: as §1, with “1 μg/ml of purified kappa-sCD40-Flag fusion proteins or CHO cell supernatants containing” for “containing”

- Average OD [1]: 1.37 OD 450-650
- Average OD [2]: 1.88 OD 450-650
- Average OD [3]: 0.124 OD 450-650
- Average OD [4]: 2.08 OD 450-650
- Average OD [5]: 1.97 OD 450-650
- Average OD [6]: 1.62 OD 450-650
- Average OD [7]: 2.07 OD 450-650
- Average OD [8]: 2.15 OD 450-650
- Average OD [9]: 0.167 OD 450-650
- Average OD [10]: 2.01 OD 450-650
- Average OD [11]: 2.16 OD 450-650
- EC50 (read off the curve) [12]: ~0.06 µg/mL
B1: anti-CD40 human monoclonal antibody 3C3 (antibody, human IgG2, kappa, V domains shown)
VH: QVQLVESGGGVVQPGRSLRLSCAGSGFIFSRYGMYWVRQAPGKGLEWVAVIWYDGSYKYYADSVKGRFTISRDNSKNTLYLQMNSLRAEDTAVYYCARESPWYYFDYWGQGTLVTVSS
VL: DIQMTQSPSSLSASVGDRVTITCRASQGISNYLAWYQQKPGKVPKLLIYAASTLQSGVPSRFSGSGSGTDFTLTISSLQPEDVATYYCQKYKSAPFTFGPGTKVDIKR
notes: Human IgG2, C-terminal lysine removed; also called anti-CD40 mAb 3C3; CD40 antibody 3C3
